Reference: PMC6519983

Target: microtubules (MTs) formed in Xenopus egg extracts (Xenopus laevis (endogenous in egg extract))
Experiment: TIRF microscopy of GFP-TPX2 on microtubules; endogenous TPX2 immunodepleted and replaced with 20-30 nM (25 nM) GFP-TPX2 in Xenopus egg extract; 10 µM RanQ69L, 0.5 mM vanadate; silane-passivated coverslips; rise of TPX2 intensity at single pixels of individual de novo MTs before the first branch, normalised by the fluorescence of a single GFP-TPX2 molecule

binding rate (molecules μm^−1 s^−1): 0.4
Substance: Full-length TPX2 with N-terminal Strep II-6xHis-GFP-TEV site tags (natural protein)
